# Results taken from the nanobody polyreactivity screen of Harvey et al. (2022).
# Assay: yeast display, Sf9 membrane polyspecificity reagent, FACS + sequencing; frameworks hold sequencing errors
# Procedure, shortened: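 After 36–48 hours of galactose induction, yeast (Saccharomyces cerevisiae BJ5465) displaying a synthetic nanobody library were stained at 4 °C for 1 hour with 10% biotinylated, detergent-solubilized Sf9 membrane reagent. Streptavidin microbeads enriched the stained cells before FACS sorting into low and high (top ~1%) gates on anti-HA and streptavidin fluorescence. Each clone's polyreactivity label reflects its gate of origin.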
row,Sequence,polyreactivity (PSR sort gate)
1,QVQLVESGGGLVQAGGSLRLICAASGSTLIWNAMGWYRQAPGKEMELVAVISFSGVSTYYADSVKGRFTISRDNAKNTVYLQMNSLKPEDTAVYYCAAGRYLYNYYGYVDKYGYWGQGTQVTVSS,low polyreactivity
2,QVKLEESGGGLLQAGGSLRLSCAASGRIIGDYAMGSYRQAPGKERELVAANDRGGSTHYADSVKGRYTISRDNAKNTFYFQMNSLKPEDTAVYYCNLDVWANIKSRCIFAGWYDYWGQGTQVTVSS,low polyreactivity
3,QVQLVESGGGLVQARGSLRLSCSASGSIIDIYAMGWYRQAPGKERELVAAITGGGSTNYADSVKGRFTISRDNAKNTVYLQMNILKPEDTAVYYCAAGTYLNGGGEYWGQGTQVTVSS,low polyreactivity
4,QVQLVESGGGLVQAGGSLRLSCAASGFIFTYYGMGWYRQAPGKERELVAAITWSGASTYYADSVKGRFTISRDNAKNTVYLQMNSLKPEDTAVYYCNAGWDSGIVQSDETVYKYDYWGQGTQVTVSS,low polyreactivity
5,QVQLQESGGGLVQAGGSLRMSCASSGTIFRISDMGSYRQAPGKDSEFVAAITYGANTYYADSGKGRFTISRDNAKNTVYLQMNSLKPEDTAVYYCAVPPVKETILDYWGQGTQVTVSS,low polyreactivity
6,QVQLEESGGRLVQAGGSLRLICAASGSTFLANAMGWYRQAPGKERELVATISSGGSTNYADSVKGRFTISRDNAKNTVYLQMNSLKPEDTAVYYCAAEYWYAWQEYGYWGQGTQVTVSS,low polyreactivity
7,QVQLVESGGGLVQAGGSLRLSCAASGHIFDHYAMGWYRQAPGKERELVAAISTSGTSTYYADSVKGRFTISRDNAKNTVYLQMNSLKPEDTAVYYCNAGGGHVGDVRYPYRYWRYNYWGQGTQVTVSS,low polyreactivity
8,QVQLVESGRGLVQAGVSLRLSCAASGFIFYDYAMGWYRPAPGTERELVAAISSGGSTNYADSVKGLFTISRDNAKNTVYLQMNSLKPEDTAVYYCAADVRSYATWKRDYDYWGQGTQVTVSS,low polyreactivity
9,QVQLVESGGGLFQAGGSLRLSCAASGSTIQQYAMGWYRQAPGKEREFVAAISWRGGRTYYADSVKGRFTISRDNAKNTVYLQMNRLKPEDTAVYYCAVDPSIYRLSAYYYDYWGQGTQVTVSS,low polyreactivity
10,QVQLVESGGGLVQAGGSLRLSCAASGRTFAYNAMGWYRQAPGKERELVADITSGGSTYYADSVKGRFTISRDNAKNTVYLQMNSLKPEDTAVYYCAAYPQFWYWDYNYWGQGTQVTVSS,high polyreactivity
11,QVQLVESGGGLVQAGGSLRLSCAASGRTLDIYTMGWYRQAPGKERELVAAISWSGGSTYYADSVKGRFTISRDNAKNTVYLQMNSLKPEDTAVYYCNRVPISYAGQLEHSLYDFWGQGTQVTVSS,low polyreactivity
12,QVQLVESGGGLVQAGGSRRLSCAASGSTFRANAMGWYRQAPGKERELVAAITSSGGSTYYADSVKGRFTISRDNAKNTVYLQMNSLKPEDTAVYYCAAYPRPYIGYTDGYVWYEFDYWGQGTQVTVSS,low polyreactivity
13,QDQLVESGGGLVQAGGSLRLSCAASGRNFELYAMGWYRPAPRKERELVATISGSGGSTYYADSVKGRFTISRDNAKNTVYLQMNSLKPEDTAVFYCAKNAYGYYYSRSDDWGQGTQVTVSS,low polyreactivity
14,QVQLVESGGGLVQAGGSLRLSCAASGRILDIYAMGWYRQAPGKDRELVAAINSDGRTYYADSVKGRFTISRDNAKNTVYLQMNSLKPEDTAVYYCNARHHNKVARFDYWGQGTQVTVSS,low polyreactivity
15,QVQLVESGGGLVQAGGRLRLSCAASGRTFRYNAMGGSRQAPGKERELVAAISGGDSTYYADSEKGRFTFSRDNAKNTVYLQMNCLKPEDTAVYYCAGRTYRRRVSQSVSRNDYWGQGTQVTVSS,high polyreactivity
16,QVQLVESVGGLVQAGGRLRLSCAASGLIFDDYSMGCYRQAPGKEREFVSAISWSDGTTYYADSVKGRFTISRDNAKNTVYLQMNSLKPEDTAVYYCAARLARAGYWRRNYYYWGQGTQVTVSS,high polyreactivity
